T1: GST-SLK 950-1202 (GST-tagged SLK ATH domain) (murine, UniProt O54988 981-1233)
T1 construct: Bacterially expressed GST fusion on glutathione sepharose; also called GST-ATH; not shown: glutathione S-transferase (GST) tag of pGEX-5X or pGEX-4T1 (Amersham)
T1 sequence: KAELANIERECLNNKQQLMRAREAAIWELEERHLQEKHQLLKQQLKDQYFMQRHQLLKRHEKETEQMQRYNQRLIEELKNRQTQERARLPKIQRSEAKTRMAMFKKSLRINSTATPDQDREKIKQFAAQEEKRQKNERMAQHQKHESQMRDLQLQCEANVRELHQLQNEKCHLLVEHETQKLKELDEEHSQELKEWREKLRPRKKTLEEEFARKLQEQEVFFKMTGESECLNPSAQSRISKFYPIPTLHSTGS

B1: HA-Ldb2 DD (aa 1-186) (other, mouse, UniProt O55203 1-186, looked up, not shown: small tags and cut ends)
chain: MSSTPHDPFYSSPFGPFYRRHTPYMVQPEYRIYEMNKRLQSRTEDSDNLWWDAFATEFFEDDATLTLSFCLEDGPKRYTIGRTLIPRYFSTVFEGGVTDLYYILKHSKESYHNSSITVDCDQCAMVTQHGKPMFTKVCTEGRLILEFTFDDLMRIKTWHFTIRQYRELVPRSILAMHAQDPQVLDQ
modifications: [35S]-methionine label
notes: In vitro translated; also called Ldb2 dimerization domain
B2: HA-Ldb2 LBD (aa 298-373) (other, mouse, UniProt O55203 298-373, looked up, not shown: small tags and cut ends)
chain: DVMVVGEPTLMGGEFGDEDERLITRLENTQYDAANGMDDEEDFNNSPALGNNSPWNSKPPATQETKSENAPPQASQ
modifications: [35S]-methionine label
notes: In vitro translated
B3: HA-Ldb2 NLS (aa 188-288) (other, mouse, UniProt O55203 188-288, looked up, not shown: small tags and cut ends)
chain: SKNITRMGLTNFTLNYLRLCVILEPMQELMSRHKTYNLSPRDCLKTCLFQKWQRMVAPPAEPTRQPTTKRRKRKNSTSSTSNSSAGNTTNSAGSKKKTPAA
modifications: [35S]-methionine label
notes: range 188-288; In vitro translated; also called Ldb2 nuclear localization signal domain

The target of the test is T1, GST-SLK 950-1202 (GST-tagged SLK ATH …). Briefly: binding of [35S]-labeled Ldb2 deletions to GST-ATH. The procedure: (c) Schematics of Myc epitope-tagged SLK deletion mutants. […] (d) Co-transfection of HA-tagged Ldb2 and Myc-tagged SLK deletion constructs was performed in HEK 293 cells. Extracts were immunoprecipitated with anti-HA antibody (12CA5) and immunoblotted with anti-Myc antibody (9E10) (bottom panel). Expression of the transfected constructs was confirmed by western blotting (top and middle panels). […] (e) Reciprocal co-IP showing that full length HA-SLK associates with Myc-Ldb1 and 2. (f) Association of endogenous SLK and Ldb. Ldb1 was immunoprecipitated from protein lysates obtained from MEF cells and primary neurons and subjected to western blot analysis with an anti-SLK antibody. A 220 KDa band corresponding to SLK co-precipitated with […]. Reciprocal immunoprecipitations were also performed on N1E 115 neuroblastoma cells or primary cortical neurons. A 50 Kda band corresponding to Ldb1 co-precipitated with SLK. As a control for non-specific binding to the sepharose beads, protein-A sepharose beads alone were added to 400 μg of the same protein lysates. Similar results were obtained with Ldb2
To map the Ldb1/2 domains of interaction, [35S]-labeled deletions of Ldb1 were assayed for binding to a GST-tagged SLK ATH domain (FIG. 17a). […] In addition, versions of Ldb2 lacking the C-terminal LIM binding domain (ΔLBD) were able to bind the SLK ATH domain while the LBD of Ldb2 by itself could not bind (FIG. 17b). Further deletion of 62 amino acids from the carboxy terminal end of the dimerization domain (DDΔC) retained binding thus refining the Ldb2 binding region to the SLK ATH domain in the C-terminal 124 amino acids of Ldb2. An analogous set of Ldb1 deletion mutants were tested for binding to GST-ATH with similar results (data not shown).
With B1, the binding result is reported as “binds”.

For B2, the binding result is “no binding”.

Take B3: the binding result is given as “binds”.

These data come from patent US20090081195A1 (OTTAWA HEALTH RESEARCH INSTITUTE, published 2009).
